The nature of this data set: soluble on expression in E. coli; label from the status in PepcDB or PDB records.
For “MGSDKIHHHHHHMSKVVKFGGSSVANSEQFKKVKQIILADPDRKYVVTSACGKSGQEDHKVTDLLYLCAAHITYDVSYESIFQSIVDKYMEIKRSLGLKIDLAGEFAKIRQNMAQNLNLDYLVSRGEYLTGLCLAEYLDADFRDASQVIRFHYDGSIDLDKSQELLKAQVDPGRRVVIPGFYGSLPNGVIKVMSRGGSDITGSIVANAFDVDVYENWTDVSGFYVADPRIIKDPVQIPRVTYSELRQMSYMGANVLHDDAVFPVRQKNIPINVRNTNHPENPGTMIMNDCSELDAQERPHVITGITGKQDFTVITMVKSHVSAEAGFLRKVLAVFEKFQISIESVPVTVDTFSIVVQTKKIERYLYEIVAELQQDLHLDDIQVESQQAMLAVVGRAMRQMPGMSGKILSTLGDQQINIRTINQACDEQSIVIGVNNQDLVPAIKAIYQQFISEERVER”, the “soluble on expression in E. coli” value is on record as “not soluble”.

Take “MGSDKIHHHHHHMSLASVFNIAGSGMSAQSTRLNTVASNIANAETVSSSVDKTYRARHPVFSTMFQQAQGDSGSLFADQDSSGAGVQVLGIVEDQSSLMPRYEPNHPAADANGYVYYPNVNVVEEMADMISASRAFQTNAEMMNTAKQMMQKVLTLGQ”: the “soluble on expression in E. coli” value is “not soluble”.

For “MGSDKIHHHHHHMSLEHFFRDELTYLRLQGREFAKAHPELTRFLSEQTTDPDVERLLEGFAFLTGSLRAKIEDEFPELTHGLLGMLWPNYLRPVPSMTIMQFSVHPGAIAQPAFVARGCELDSLPIDDVVCHFQTCHDAWIYPADIREIKVQSGNDLSTITLDIGLHGPLSLSDLQLDKLRFYLGGDTYTAYELYFWIASQLSHIELEVDGQRFRQEASVLKTVGFEREDALLPYPGNVYSGYRILQEYFCFPESFLFFQLAGAVWPDLPLTVTEFRLHFCFDRPLPAELKIRPDSFMFNCVPAINLFQHDSEPINLSGRQTDYPLKASYRNADSFEIFSVDKVEGWVEGNSGRSRGIPRTYQPFESFQHQIERAKGRLALYYRIRVREAINGNGFDHMLSFVRGDEQEVIDLDESISVTLTCTNRSRAAQLSVGAICVPTGNSPSFATFRNLVRPTRPLRPAMDGSLHWTLISNLSLNYVSLLRRDALVQILRTYDFPALHDKQAEQASRKRLAGIESIETTPIDRLVQGMPVRGLKSILSVRQSAFSSEGELYLFSTVLAHFFSLYASVNAFHLLEVVNIDNKERYRWPVQIGQHSMM”, the “soluble on expression in E. coli” value is “not soluble”.

Turning to “MGSDKIHHHHHHMSLLINLSFILTKPTGTTTYAFNLLPHLKPLQPTLLTSQYFPNYNSYQTPVNQTSEQGIKGHLRRLRWTQFKLPKIYNNLKSSLLFSPLPEAPLYTNCRFVITSFDMIPLRFPKRFSPLIPYHRYYTPQVLKQAQHIICISQTTAEDITNFYGIPANKITPILLAYDRTHFRPLNLATRNYFLYIGRQEPYKNIQRLLAAFAALPNHKDYELWLVGPSDLRYTPTLKTQVEELSITNQVKFLDYVPYSELPKIINEAIALVFPSLWEGFGLPVLEAMACGTPVITSNLSSLPEVAGDAAILIDPYNTVEITEAMQVIATNSALRSHLSSQGIIHCQQFSWEKTAKATAEVLSRYM”, the “soluble on expression in E. coli” value is “not soluble”.

Consider “MGSDKIHHHHHHMSLNSTPQSVRVHIGLFGKRNAGKSSIINAITNQSAAIVSDIAGTTTDPVFRPMEILPIGPCVLIDTAGLDDVGELGELRIGKSLDVLEKTDIALLVVDCQIGISQEDLSLIEKFNDKNIPHILILNKIDTIKNQSEILNLTKNKVKCPVVSVSSTDKIGIENLKNEIIKVLPKDSTEFKLVSDLIEPNDLVVLVVPIDKAAPKGRLILPQQQVIRDILDNGAISIVTKEDSLKETLSNLGKKPKLVITDSQVFPQVDKDTPKDIPLTSFSILFARQKGDLKELINGAYALENLKDGDKILMAEGCTHHRQTDDIGTVKIPNMIRKKTGKNITFEFSSGVSFTEDINKYALVVHCGACMMNRAGMLSRIEKAKSFNVPIVNYGVLIAYVKGILERSLELFNY”, for which the “soluble on expression in E. coli” value is “not soluble”.

For the sequence “MGSDKIHHHHHHMSLSNMQVFNDYIMPATIKSLDQMIDKFNAGSAGAIVLSSEGMTGDFMRESFFASLAAAQRRVNRKGANGAASATDLSELTGSKVKIAGGFGPVRYEPSQMTWLQRPTQQGVLAASTAFAELLLQDQLNTAIAALVAALSNNAAVTNDVSGSAGMTYGAINSAHAKFGDASGQIVANVMTGTVAHKLIGDNLTNGQRLFTAGNVNVIDILGKAVIVTDAPALYEAGTPNKSKVLGLVPGAATVGNTSDIITNVETTNGKERIETTFQADYSFSLGLKGYGWDEANGGASPTDAEIATGTNWDKVAEFDKMTAGVIAVADADQ”, the “soluble on expression in E. coli” value is “not soluble”.

For “MGSDKIHHHHHHMSLSYLQTSLDRIDAAARDDVIEICINPDGSCWGEFQGDHFMRKLDQALTATEVKDLGNQIASSANTTMSKDRPIVSVSITYKGRPIRAQVITPPAVLSAMSISLRFFSSLPLDGIALDFLYGKERKLEKLRLKKTRELREVVAAGVIDDALAFCVDNKLNMIVSGGTSTGKTVAARKILSHVPADERIVTIEEAAELLPTQPNAVTLIANRDAEFQTADVLLTATLRMRPDRIILGEVRGKEAMTFLEAINTGHGGSMTTLHAETPQLAVQRLAIAALKTEIPMTYADMIQYIENSIDVIIQAGRHDGRRGITEFYLPGATEIGVSQ”, the “soluble on expression in E. coli” value is “not soluble”.

Consider “MGSDKIHHHHHHMSLTDGPYAGPPQPDVVDPSGGANQTRVRAYNERLVMSLVRRHGSLSKAEIARRSGLSAQTASVIMRSLEADGLLVRGAPVRGRVGQPSIPMRLNPDAVYSFGVKIGRRSADLVLMDFLGTIRLHLHQIHTYPLPEEIVSFIVGGIGKLEGQLGPGERGRIAGVGIATPFELWNWSEEVGAPREEMDRWRDFDLQAAVASRIRHPVFLQNDGTSACGAELAFGVGASYPDFVYFYIGSFIGGGVVINSALFSGRTGTAGAVGPLPVAGKDGKSTQLLKIASVFVLEKLLRERGIDPEPLWYSADDWIDFGEPLEIWIQDAAAALAQAVVSAVSVVDFSAAVIDGGFPPWVRARLLAATRKALQTLDLQGVTVPDLVEGTVGSHARAIGGASLPLFSRYLLDTNVLFKEL”, for which the “soluble on expression in E. coli” value is on record as “not soluble”.

“MGSDKIHHHHHHMSLTRLNIEAFRNIQSAQLIPAPGINLIYGQNGSGKTSILEAIYFLGMGRSFRSHLSQRVINNDDDKLTLFATLNLARGDSKIGLRRFRSGETEVRIDGEKVKRLSTLAETLPIQVITPESFSLLFEGPKSRRQFIDWGAFHADPQFYGAWTNVRRVLKQRNQLLRNGSAYSNIQFWDQEFVRYAEQVTEIRNHYVDSLNELLKGIIGEFLPSVDVKVSFTRGWDSKTDFAELLENQYSRDLATGHTVSGPHKADLRLRVGTLPAQDALSRGQLKLLVCALRIAQGKLLKQQIDKHSIYLVDDLPSELDAQHRQLLLKQLTDTGAQVFVTAIDPAAIVDSLHTPPSRMFHVEQGRVTVIE”: the “soluble on expression in E. coli” value is reported as “not soluble”.

Take “MGSDKIHHHHHHMSLVINQLSKRIDHHQTLDGISFEIGLGQIVGVVGRNGVGKTTLFRTINGQYLTDHGQVLVDGQEVVDQPEMRTQLCFIDPLANFFKGATIAQIQWYYQAAYPDFDNAKFAQLLDRYHLTSKQKLRHFSKGMFGLFTIILSVATQAPYLFLDEPLDGLDVLIRKNILGILIDEVATGNRSIVIASHNLAELEGVIDRALMLKHGRIVNDYQLEAMRRSARKVQLVYRDKQIPAVVKQLGHIVHVSGRVIVVVFEDYNAEVQAQLATTNPVFQEDLPLSLADLFMANLTDEADFELLS”: the “soluble on expression in E. coli” value was “not soluble”.

As to “MGSDKIHHHHHHMSMKISEKKFNDRVGDGIQDSFMRGAVSSAQTRLYTNRLKAADELGNWEEWRELGEEIRQHTLENLDYYLMQLSENVSKRGGHVYFAKTKEEAAKYIQDVAKKKQAKKVVKSKSMVTEEISMNHALEEIGCEVLESDLGEYILQVDNDPPSHIIAPALHKNRTQIRDVFKEKLGYENSDDPYEMTKFVRKQLREKFMDAEIGVTGCNFAVANTGSLCLVTNEGNADLVMSIPKTQIAVMGMERMVPTMEELDVLVGLLCRSAVGQKLTSYVTVAGPIQEEEVDGPEEFHLVVVDNGRSQILGSEFRQVLQCIRCAACVNVCPVYRHVGGHSYGSIYSGPIGAVLTPLLGGYDDYKELPYASSLCGACTEACPVKIPLHDLLLKHRQVIVEQEGRAPLAEKLAMKMFSMGASSAALYKMGSKMAPAAMSPFTSGNRVSKGVGPLKNWTDIREFPAPSKERFRDWYKDHKKGGDK”, the “soluble on expression in E. coli” value is listed as “not soluble”.

“MGSDKIHHHHHHMSNESCKDGKIWAYLKNINVYIDQNKILSDINLNLRYGENILILGPNGSGKSTFLKLLNRSIYPITTKDSSFKLFNKENINIWDLRKKIGFLFKEMEQRVNNGVTLYDVISSGFSGIFNSKYTNLLSESKKIKINNLINTWELGDIIYNEFQTLSDGQKRRALLARALVYEPNILVLDEPFCNLDLKSNIILNQNLNELIKHSVNLIYVTHNVESILPKTNRVILIKEGKILNDGSPSELINTKTLSDLFNISIKVIEQEGYWRMIPLSS”: the “soluble on expression in E. coli” value is listed as “not soluble”.

With “MGSDKIHHHHHHMSNLSLDFSDNTFQPLAARMRPENLAQYIGQQHLLAAGKPLPRAIEAGHLHSMILWGPPGTGKTTLAEVIARYASADVERISAVTSGVKEIREAIERARQNRNAGRRTILFVDEVHRFNKSQQDAFLPHIEDGTITFIGATTENPSFELNSALLSRARVYLLKSLTTDDIEQVLDQAMQDKTRGYGDQDIVLPDETRRAIAELVNGDARRALNTLEMMADMAEADDSGKRVLLPALLTEIAGERSARFDNKGDRFYDLISALHKSVRGSAPDAALYWYARIITAGGDPLYVARRCLAIASEDVGNADPRAMQVAIAAWDCFTRVGPAEGERAIAQAIVYLACAPKSNAVYTAFKAALADARERPDYDVPVHLRNAPTKLMKEMGYGQEYRYAHDEPNAYAAGEVYFPPEIAQTRYYHPTNRGLEGKIGEKLAWLAEQDQNSPTKRYR”, the “soluble on expression in E. coli” value was “not soluble”.

In the case of “MGSDKIHHHHHHMSNPLLKQICELDVFTLLVFKTIFDTGHANSAAKALDVSAPKISRCLNALRLTFNDELFYRRQQGLKPTPLAESLYAAICQFTNSVYNLEQSALQIQNTHNTTDLPLHIAVSNELLSFLAPQLSSPDVITQLGKIRLHKWQENSAELIHAGELDFGITLENADNKELSYTRLGCISGIYVVASKHHPIWQTELSITLEHICRHPFLCLDLKGFNSKVDPLEFFCQRQGILLPSIDRVIDREEWYAHLLTIQSVAFCSSIDMHTVKHMPGLKLVPLSLTELHRLHDSMLPPQYYLVEKPRARRRYSQTQCDIVVSPLITTLIPTL”, the “soluble on expression in E. coli” value is recorded as “not soluble”.

Take “MGSDKIHHHHHHMSNSQILGERARILADQLLAVPTTVYQQRSLQAALHLFLDTGTKTALHRAPLVSKSAVSRLLNNYDWDTAACWALLQRSQWEALLLAARRKRRACLRLSVDLTSIEKTGKQLPFVRVYNEVHGIHLVVLFAEYRGLKFPVGYRVYRGKGTATPVSLALELLGEVPDAIRKRFRIRVLADSGFEAAVFLDGVRTLGFEFVVGVRATRRTTHPGQVTVADCEHGAWLELQNWPHDTLTLARVERGERTFFSVASELMTGDEVAAEGGKRWNIESFFKEGKHQFSLQQFALRTARGLDRWVLLVFLAFTLTMLHRSPDLSLEEAAGLALTLALPFLRLNVIFARLATDEEFLRQHGYSLKIARCNS”: the “soluble on expression in E. coli” value is on record as “not soluble”.

Take “MGSDKIHHHHHHMSPKTALNLFSLLWQNYSARVPYARTYEQMITAAGGTVANDHIAFRSLRLLVDSPRGKVNLGINYLSQIAEALGYEPAGEYNFPQTHLYARHYRHPQQIEFDLPKLFISELIVDELPDNIIQLITQTVSTVADEFTSPLTYFSPAEGNDGVIAQQLQKFFTRPWMTPRRSVVEAVNQVTQYGAWVLLHGYAVNHFTGYVNRHQTPEYADIDDTARGLANLGVPMKAEIEGDVTWGLRQTATQAVKEMVTVIDDISGQEVEIPWTYAYYEIAQRYPLQVEPGKEKLFDGFLGNNAQQLFEMTRLVECDAAKIGK”: the “soluble on expression in E. coli” value is recorded as “not soluble”.

Source of the values: the DeepSol protein solubility set.
